Reference: patent publication US12594347B2, “Nanoparticulate drug delivery systems” (Duke University, priority 2018, dated 2026)
Where two headings read alike, the source gives them in different places.

Key:
Canine pharmacokinetics = assay: Canine pharmacokinetics
Excerpt: Canine pharmacokinetics and toxicities. […] All procedures and protocols involving care, handling, and dosing for this study were reviewed and approved by the Institutional Animal Care and Use Committee (IACUC) at North Carolina State University College of Veterinary Medicine, which is an AAALAC-accredited facility. The animals' health status were monitored daily by the animal technicians and veterinary staff, paying particular attention for signs of gastrointestinal toxicities including vomiting, diarrhea, lethargy, and inappetence. If noted, supportive care was provided. […] 2 mL blood samples were drawn from jugular vein at 40 s, 15 and 30 min, 2, 4, 8, 24, 48, and 72 h after injection, diluted into 400 μL heparinized PBS (1000 UmL^−1). Sample processing and analysis were performed as with murine pharmacokinetics studies.

[1] = Biodistribution in C26 tumor-bearing mice; format: in vivo, Balb/C mice; conditions: mouse, in vivo
Experimental: Cell culture and tumor inoculation.
Biodistribution. […] At 2 and 24 h after injection, tissues (tumor, muscle, heart, lung, liver, spleen and kidney) were removed, weighed and suspended in 1.0 mL acidified isopropanol (75 mM HCl, 10% water, 90% isopropanol). Tissues were then homogenized using 2 mm diameter zirconia beads and a MiniBeadbeater-1TM (Biospec; Bartlesville, OK) for 2 min at 5,000 beats per minute and were incubated overnight at 4° C. in the dark. The isopropanol extracts were then vortexed, and centrifuged (14,000 RPM, 10 min, 4° C.) and 125 uL of the supernatant was loaded onto a black 96-well plate (BD Biosciences) in duplicate. […] To correct for background tissue fluorescence, tissues were removed from three untreated control mice and were processed similarly. For each tissue, a background (counts per mg tissue) curve was created using 2-fold dilutions of the processed tissues in acidified isopropanol.

[2] = test system: C26 murine colon adenocarcinoma cells
Experimental: C26 murine colon adenocarcinoma cells were seeded (5000 cells/well) in a 96-well plate. After 24 h, cells were treated in triplicate with 3-fold serial dilutions of drugs beginning with 100 uM. After 72 h incubation, 20 μL of CellTiter 96 AQueous™ (Promega; Madison, WI) 3-(4,5-dimethlthiazol-2-yl)-5-(3-carboxymethoxphenyl)-2-(4-sulfophenyl)-2H-tetrazolium (MTS) reagent was added to each well followed by 3 h incubation at 37° C. The absorbance at 490 nm was determined using a Victor3™ microplate reader (Perkin Elmer; Waltham, MA). For each plate, blank wells (with no cells) were defined as 0% viability and wells treated with PBS were defined as 100% viability. The background absorbance at 490 nm was corrected by subtracting the average absorbance of the blank wells from each well. The percent viability was defined as the absorbance of each well normalized to the absorbance of wells treated with PBS. Inhibitory concentration (IC 50) values were calculated using a four-parameter logistic fit in the Prism program (GraphPad Software, San Diego, CA, USA).

[3] = test system: MDA-MB-231 human breast cancer cells; assay: In vitro cytotoxicity, MTS assay, MDA-MB-231 cells; format: cell-based; conditions: 72 h incubation, read-out: half-maximal inhibitory concentration (IC50)
Experimental: In vitro cytotoxicity of the ABDN-CP-PTX versus that of naked CP-PTX and free PTX was determined using the […] MTS assay. […] The MTS assay was repeated twice to ensure validity of results.

[4] = target: T1, human serum albumin (HSA) (Homo sapiens, UniProt P02768); assay: Isothermal titration calorimetry (Nano ITC) for PTX conjugates with human albumin; format: binding
Experimental: (§1) For PTX conjugates, ITC was conducted using a Nano ITC system (TA Instruments, Utah, USA). Aliquots of 10 uL of 500 uM albumin in PBS were titrated via a 250 μl syringe into CP-PTX at 50 uM concentration, stirring at 300 rpm at 37° C. For background correction, PBS (in the cell) was titrated with albumin (in the syringe) at the same concentrations and conditions. Background was subtracted from the final curves and the binding and thermodynamic parameters binding constant (KD), number of binding sites (n), and enthalpy (ΔH)—were computed by non-linear fitting to an independent-binding site model using TA Instruments NanoAnalyze software.

[5] = target: T2, mouse serum albumin (MSA) (Mus musculus, UniProt P07724); assay: Isothermal titration calorimetry (Nano ITC) for PTX conjugates with mouse albumin; format: binding
Experimental: as §1

[6] = Dynamic and static light scattering; format: physicochemical; conditions: for % Intensity / Polydispersity / Rh: DLS
Experimental: Light Scattering. Dynamic and static light scattering measurements were performed using an ALV/CGS-3 goniometer system (Germany). […] To study the effect of albumin binding on micellar self-assembly, mouse albumin was added to the samples at 1:1 albumin-CP molar ratio in PBS. Measurements were obtained at 25° C. and 37° C. for angles between 30-150° at 5° increments with each angle consisting of 3 runs and 10 s each at each run. Hydrodynamic radius (Rh) was determined by dynamic light scattering. The radius of gyration (Rg) and the average molecular weight of the particle (MW) were calculated from the slope and intercept of a partial Zimm plot, respectively, using ALV/Dynamic and Static FIT and PLOT software and according. The micelle aggregation number Nagg, or the number of polypeptide chains per nanoparticle, was calculated by dividing the micelle molecular weight by the molecular weight of the polypeptide monomer.
Size and morphology of CP conjugated micelles. The radius and the aggregation number of the self-assembled micelles were determined, in the presence and absence of albumin, by dynamic and static light scattering at 37° C. using an ALV/CGS-3 goniometer system (Germany). Freeze fracture electron microscopy was performed to visualize the micelles and estimate their radius and morphology.

[7] = target: T1, human serum albumin (HSA); assay: Isothermal titration calorimetry (VP-ITC) of polypeptide carriers with human albumin; format: binding; conditions: PBS pH 7.4, 37° C.
Experimental: (§2) Interaction with albumin. Interaction of CP monomers and micelles with human and mouse albumin was analyzed by isothermal titration calorimetry (ITC).

[8] = target: T2, mouse serum albumin (MSA); assay: Isothermal titration calorimetry (VP-ITC) of polypeptide carriers and DOX micelles with mouse albumin; format: binding; conditions: PBS pH 7.4, 37° C.
Experimental: as §2

[9] = Pharmacokinetics of Alexa488-labeled ABD-ELP and ELP monomers in mice; format: in vivo; conditions: tail vein, Balb/C mice, two-compartment model
Experimental: A single cysteine was added to the C-terminus of polypeptides and was reacted with Alexa 488-maleimide (Life Technologies, Carlsbad, CA, USA). 50 uL Alexa 488-maleimide at 27.75 uM in DMSO was added to the polypeptide solution in the reaction (250 uM) and was allowed to stir for 3 hr at room temperature in the dark. Unbound Alexa488 was then removed by Amicon ultra-15 centrifugal filter units (MWCO 10 kDa, Millipore) and in PBS. Alexa488 concentration and conjugation efficiency was then determined.
125 uL of the supernatant was loaded onto a black 96-well plate (BD Biosciences) in duplicate. Free Alexa488-maleimide solutions at various known concentrations were prepared in heparinized PBS and were loaded onto the plate as standards. Alexa488 fluorescence was measured on a Wallac Victor3 TM microplate reader (Perkin Elmer; Waltham, MA).

[10] = Thermal turbidimetry (transition temperature); format: physicochemical
Experimental: Thermal Turbidimetry. Thermal profiles of CPs and CP conjugates were determined by measuring the transition temperature (Tt) over a range of concentrations (5, 10, 25, 50, and 100 uM) in PBS, FBS, and MS using a Cary UV-visible spectrophotometer equipped with temperature controller (Agilent Technologies, CA, USA). […] The transition temperature was defined as the maximum first derivative of the optical density.

[11] = dogs, cephalic vein, 27 DOX Equiv/m^−2 BSA or 0.9 mg DOX Equiv/kg BW

T2 sequence (P07724 25-608): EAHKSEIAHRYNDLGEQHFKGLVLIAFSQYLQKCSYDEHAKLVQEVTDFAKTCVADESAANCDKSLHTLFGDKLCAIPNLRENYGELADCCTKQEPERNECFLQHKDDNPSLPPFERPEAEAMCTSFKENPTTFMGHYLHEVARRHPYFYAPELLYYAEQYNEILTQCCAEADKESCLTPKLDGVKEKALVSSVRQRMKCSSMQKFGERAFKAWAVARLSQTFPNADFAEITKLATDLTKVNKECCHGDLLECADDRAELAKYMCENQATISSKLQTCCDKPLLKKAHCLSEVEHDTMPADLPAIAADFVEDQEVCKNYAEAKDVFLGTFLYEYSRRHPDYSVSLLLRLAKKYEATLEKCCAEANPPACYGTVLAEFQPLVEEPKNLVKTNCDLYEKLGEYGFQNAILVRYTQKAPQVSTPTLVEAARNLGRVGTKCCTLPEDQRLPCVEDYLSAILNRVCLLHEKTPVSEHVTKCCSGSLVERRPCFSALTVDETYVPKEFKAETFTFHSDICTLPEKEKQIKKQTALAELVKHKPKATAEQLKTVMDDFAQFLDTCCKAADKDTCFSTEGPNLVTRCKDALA

COc1cccc2c1C(=O)c1c(O)c3c(c(O)c1C2=O)C[C@@](O)(C(=O)CO)C[C@@H]3O[C@H]1C[C@H](N)[C@H](O)[C@H](C)O1 [DOX, doxorubicin, reference compound]
Apparent distribution volume VD (Canine pharmacokinetics; dog, in vivo): 3.85 ± 0.26 mL/g
Plasma clearance CL (Canine pharmacokinetics; dog, in vivo): 0.7875 ± 0.0951 mL/h/g
Distribution half-life β t1/2 (Canine pharmacokinetics; [11]): 3.6 ± 0.5 min
Elimination rate constant kg (Canine pharmacokinetics; [11]): 0.96 ± 0.13 h⁻¹
Plasma to tissue rate constant kpt (Canine pharmacokinetics; [11]): 8.51 ± 1.20 h⁻¹
Elimination half-life α t1/2 (Canine pharmacokinetics; dogs, cephalic vein, 27 DOX Equiv/m^−2 BSA or 0.9 mg DOX Equiv/kg BW, plasma DOX): 2.9 ± 0.8 h
accumulation in the spleen (in words) [1]: lower accumulation in the spleen than CP-DOX micelles
distribution to the heart, lung, kidneys, and muscle (in words) [1]: greater extent
IC50 [2]: 0.09 µM

CC(=O)O[C@H]1C(=O)[C@@]2(C)[C@H]([C@H](OC(=O)c3ccccc3)[C@]3(O)C[C@H](OC(=O)[C@H](O)[C@@H](NC(=O)c4ccccc4)c4ccccc4)C(C)=C1C3(C)C)[C@]1(OC(C)=O)CO[C@@H]1C[C@@H]2O [free PTX, paclitaxel, reference compound]
IC50 ([3]; MDA-MB-231, printed MDA-MB-213 human breast cancer cells): 0.0098 µM

B1: ABD-CP-PTX (conjugate)
chain: LAEAKVLANRELDKYGVSDYYKNLINNAKTVEGVKALIDEILAALPVPGAGVPGAGVPGAGVPGAGVPGAGVPGAGVPGAGVPGAGVPGAGVPGAGVPGAGVPGAGVPGAGVPGAGVPGAGVPGAGVPGAGVPGAGVPGAGVPGAGVPGAGVPGAGVPGAGVPGAGVPGAGVPGAGVPGAGVPGAGVPGAGVPGAGVPGAGVPGAGVPGAGVPGAGVPGAGVPGAGVPGAGVPGAGVPGAGVPGAGVPGAGVPGAGVPGAGVPGAGVPGAGVPGAGVPGAGVPGAGVPGAGVPGAGVPGAGVPGAGVPGAGVPGAGVPGAGVPGAGVPGAGVPGAGVPGAGVPGAGVPGAGVPGAGVPGAGVPGAGVPGAGVPGAGVPGAGVPGAGVPGAGVPGAGVPGAGVPGAGVPGAGVPGAGVPGAGVPGAGVPGAGVPGAGVPGAGVPGAGVPGAGVPGAGVPGAGVPGAGVPGAGVPGAGVPGAGVPGAGVPGAGVPGAGVPGAGVPGAGVPGAGVPGAGVPGAGVPGAGVPGAGVPGAGVPGAGVPGAGVPGAGVPGAGVPGAGVPGAGVPGAGVPGAGVPGAGVPGAGVPGAGVPGAGVPGAGVPGAGVPGAGVPGAGVPGAGVPGAGVPGAGVPGAGVPGAGVPGAGVPGAGVPGAGVPGAGVPGAGVPGAGVPGAGVPGAGVPGAGVPGAGVPGAGVPGAGVPGAGVPGAGVPGAGVPGAGVPGAGVPGAGVPGAGVPGAGVPGAGVPGAGVPGAGVPGAGCGGCGGCGGCGGCGGCGGCGGCGG
n (number of binding sites) [4]: 0.92
n (number of binding sites) [5]: 0.95
IC50 ([3]; printed MDA-MB-213 human breast cancer cells): 0.0109 µM
% Intensity ([6]; Concentration 20 μM): 95.4%
Polydispersity ([6]; Concentration 20 μM): 24.6%
Rh ([6]; Concentration 20 μM): 39.6 ± 2.2 nm
% Intensity ([6]; Concentration 40 μM): 96.6%
Polydispersity ([6]; Concentration 40 μM): 26.6%
Rh ([6]; Concentration 40 μM): 44.1 ± 4.7 nm
Nagg ([6]; SLS, 20 μM concentration): 64.5
RG ([6]; SLS, 20 μM concentration): 42.83 nm
aggregation (in words) ([6]; body temperature (37° C.)): no aggregates

B2: ABDN-ELP: ELP scaffold with albumin binding domain ABDN (SEQ ID NO:6) fused to the N-terminus and C-terminal cysteine sequence (protein)
chain: LAEAKVLANRELDKYGVSDYYKNLINNAKTVEGVKALIDEILAALPVPGAGVPGAGVPGAGVPGAGVPGAGVPGAGVPGAGVPGAGVPGAGVPGAGVPGAGVPGAGVPGAGVPGAGVPGAGVPGAGVPGAGVPGAGVPGAGVPGAGVPGAGVPGAGVPGAGVPGAGVPGAGVPGAGVPGAGVPGAGVPGAGVPGAGVPGAGVPGAGVPGAGVPGAGVPGAGVPGAGVPGAGVPGAGVPGAGVPGAGVPGAGVPGAGVPGAGVPGAGVPGAGVPGAGVPGAGVPGAGVPGAGVPGAGVPGAGVPGAGVPGAGVPGAGVPGAGVPGAGVPGAGVPGAGVPGAGVPGAGVPGAGVPGAGVPGAGVPGAGVPGAGVPGAGVPGAGVPGAGVPGAGVPGAGVPGAGVPGAGVPGAGVPGAGVPGAGVPGAGVPGAGVPGAGVPGAGVPGAGVPGAGVPGAGVPGAGVPGAGVPGAGVPGAGVPGAGVPGAGVPGAGVPGAGVPGAGVPGAGVPGAGVPGAGVPGAGVPGAGVPGAGVPGAGVPGAGVPGAGVPGAGVPGAGVPGAGVPGAGVPGAGVPGAGVPGAGVPGAGVPGAGVPGAGVPGAGVPGAGVPGAGVPGAGVPGAGVPGAGVPGAGVPGAGVPGAGVPGAGVPGAGVPGAGVPGAGVPGAGVPGAGVPGAGVPGAGVPGAGVPGAGVPGAGVPGAGVPGAGVPGAGVPGAGVPGAGVPGAGVPGAGVPGAGVPGAGVPGAGVPGAGVPGAGVPGAGVPGAGVPGAGVPGAGCGGCGGCGGCGGCGGCGGCGGCGG
binding stoichiometry N [7]: 1.04±0.00
binding stoichiometry N [8]: 1.12±0.00
n (number of binding sites) ([4]; listed as ABD-CP): 0.95
n (number of binding sites) ([5]; listed as ABD-CP): 1.05
Apparent distribution volume VD [9]: 0.27 ± 0.01 mL/g
Area under the curve AUC [9]: 80.2 ± 1.9 µM·h
Distribution half-life β t1/2 [9]: 1.24 ± 0.295 h
Elimination half-life α t1/2 [9]: 16.8 ± 0.5 h
Elimination rate constant kg [9]: 0.08 ± 0.00 h⁻¹
Plasma clearance CL [9]: 0.012 ± 0.000 mL/h/g
Plasma to tissue rate constant kpt [9]: 0.21 ± 0.06 h⁻¹
Tissue to plasma rate constant ktp [9]: 0.31 ± 0.07 h⁻¹
Elimination half-life α t1/2 ([9]; listed as ABDN-CP): 17 h
transition temperature ([10]; 100 μM concentration in PBS): 57 °C
Tt ([10]; ABDN-CP fusions for conjugation with Paclitaxel): 48 °C
